In US20200109196A1 (MOGAM INSTITUTE FOR BIOMEDICAL RESEARCH, published 2020):
Residue numbers refer to the chain shown, from its start.

T1: recombinant human CEACAM-1/CD66a protein (R&D systems; Cat. No. 2244-CM) (human, UniProt P13688 35-428)
T1 construct: Bought protein; captured on anti-His (His1K) biosensors in the Octet assay, so it carries a His tag; also called HCCM1; recombinant CEACAM-1/CD66a protein
T1 sequence (looked up): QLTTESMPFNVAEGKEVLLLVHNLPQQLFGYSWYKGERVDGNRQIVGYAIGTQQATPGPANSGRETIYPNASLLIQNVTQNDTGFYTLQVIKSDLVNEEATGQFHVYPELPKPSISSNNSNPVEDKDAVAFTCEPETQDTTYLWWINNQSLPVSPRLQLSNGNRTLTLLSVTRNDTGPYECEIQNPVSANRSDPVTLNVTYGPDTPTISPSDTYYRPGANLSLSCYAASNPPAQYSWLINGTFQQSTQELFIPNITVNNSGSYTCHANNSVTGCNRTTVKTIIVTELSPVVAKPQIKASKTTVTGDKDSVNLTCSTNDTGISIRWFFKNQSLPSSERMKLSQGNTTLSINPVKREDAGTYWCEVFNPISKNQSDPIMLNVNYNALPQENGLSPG

T2: human CEACAM1 expressed on the cell surface (CEACAM1-Jurkat T cells); HEK293 cells transfected with human … (human, UniProt P13688 35-526)
T2 construct: whole, on cells; also called CCM1
T2 sequence (looked up): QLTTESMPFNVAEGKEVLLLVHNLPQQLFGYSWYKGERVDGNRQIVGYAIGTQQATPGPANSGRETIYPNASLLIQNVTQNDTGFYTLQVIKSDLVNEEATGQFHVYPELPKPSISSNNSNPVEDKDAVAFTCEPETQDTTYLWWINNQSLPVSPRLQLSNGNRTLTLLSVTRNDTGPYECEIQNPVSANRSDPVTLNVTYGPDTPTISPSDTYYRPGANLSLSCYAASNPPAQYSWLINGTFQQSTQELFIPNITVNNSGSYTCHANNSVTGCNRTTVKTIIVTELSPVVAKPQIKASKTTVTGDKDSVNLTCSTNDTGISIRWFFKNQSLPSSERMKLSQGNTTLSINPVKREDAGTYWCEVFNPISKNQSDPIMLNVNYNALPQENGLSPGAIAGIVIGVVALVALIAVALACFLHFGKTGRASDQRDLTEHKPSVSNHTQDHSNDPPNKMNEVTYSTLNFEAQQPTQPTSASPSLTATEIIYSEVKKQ

B1: C17 (antibody, human IgG4 S228P, lambda, V domains shown)
VH: EVQLLESGGGLVQPGGSLRLSCAASGFTFSDYSMSWVRQAPGKGLEWVSVIYPDDGNTYYADSVKGRFTISRDNSKNTLYLQMNSLRAEDTAVYYCARGSIWWLSLIPSSYNAMDVWGQGTLVAVSS
VL: QSVLTQPPSASGTPGQRVTISCSGSSSNIGNNAVNWYQQLPGTAPKLLIYANSHRPSGVPDRFSGSKSGTSASLAISGLRSEDEADYYCGAWDASLNGYVFGGGTKLTVLG
B2: C15 (antibody, human IgG4 S228P, lambda, V domains shown)
VH: EVQLLESGGGLVQPGGSLRLSCAASGFTFSSYSMSWVRQAPGKGLEWVSSISPNGGNKYYADSVKGRFTISRDNSKNTLYLQMNSLGAEDTAVYYCAKDPYNIYQPLFDYWGQGTLVTVSS
VL: B1 VL with P8L, A33Y, H54N, D83E, A91T, N97S, G98A
B3: C25 (antibody, human IgG4 S228P, lambda, V domains shown)
VH: EVQLLESGGGLVQPGGSLRLSCAASGFTFSNYAMSWVRQAPGKGLEWVSVISHGGGSIYYADSVKGRLTISRDNSKNTLYLQMNSLRAEDTAVYYCARDPTKGYAPTFDYWGQGTLVTVSS
VL: B1 VL with A33Y, N35S, N52D, H54K
notes: Made in ExpiHEK293F cells, protein A purified. huIgG4 is the isotype control and anti-huIgG4 the detection reagent; the isotype is not otherwise stated; also called anti-CEACAM1 antibody C25
B4: 4R9 (antibody, human IgG4 S228P, lambda, V domains shown)
VH: B3 VH
VL: B1 VL with A33Y, N35S, N52D, H54R, A94L
notes: also called C25-derived clone 4R9
B5: C26 (antibody, human IgG4 S228P, lambda, V domains shown)
VH: EVQLLESGGGLVQPGGSLRLSCAASGFTFSGYDMSWVRQAPGKGLEWVSWISYGGGSIYYADSVKGRFTISRDNSKNTLYLQMNSLRAEDTAVYYCAKDRLPQKAVRHSYANGMDVWGQGTLVTVSS
VL: B1 VL with A33Y, N35T, N52D, A94Y, N97S
B6: 4R26 (antibody, human IgG4 S228P, lambda, V domains shown)
VH: B3 VH
VL: B1 VL with A33Y, N35S, N52D, H54K, P56L, A94G, S95R
notes: also called C25-derived clone 4R26
B7: 4R9_H2-2 (antibody, human IgG4 S228P, lambda, V domains shown)
VH: B3 VH with T107L
VL: B1 VL with A33Y, N35S, N52D, H54R, A94L
notes: also called C25-derived clone 4R9_H2-2
B8: 4R9_H4-n20 (antibody, human IgG4 S228P, lambda, V domains shown)
VH: B3 VH with T28N
VL: B1 VL with A33Y, N35S, N52D, H54R, A94L
notes: also called C25-derived clone 4R9_H4-n20

Key:
[1] = biological target: T1, recombinant human CEACAM-1/CD66a …; test: ELISA on coated recombinant CEACAM-1/CD66a (0.25 µg/ml), HRP anti-human IgG, OD450
Experimental: Also, 2.5 μg of the recombinant CEACAM-1/CD66a protein (R&D systems; Cat. No. 2244-CM) was dissolved in 10 ml of PBS, and dispensed into 96-well plate (Nunc; Cat. No. 467679) at 100 μl/well and incubated overnight at 4° C. Thereafter, 300 μl of 1% (v/v) bovine serum albumin was added to each well, which was incubated at 37° C. for 1 hour.
Each of the diluted antibodies was subjected to serial dilutions in PBS at a 1:1 volume ratio for 6 times. Each of the antibodies diluted to 7 concentrations was dispensed into each well at 100 μl/well, which was incubated at 37° C. for 1 hour. Then, each well was washed 3 times with a washing buffer prepared by diluting 10 μl of Tween 20 (Sigma-Aldrich; Cat. No. P9146) in 990 μl of PBS. Thereafter, 2 μl of human IgG conjugated with HRP was diluted in 10 ml of PBS, which was then dispensed into each well at 100 μl/well and incubated for 1 hour.

[2] = biological target: T2, human CEACAM1 expressed on the cell …; test: flow cytometry on CEACAM1-Jurkat T cells, PE goat anti-human F(ab)2, MFI [b]
Experimental: The CEACAM1-Jurkat T cells prepared above were treated with Fc block solution and incubated for 15 minutes. […] Herein, it is noted that the cell numbers were adjusted to 1×10⁵. The cells incubated with the antibodies were repeatedly subjected to the washing procedure of resuspending the cells in a FACS buffer and centrifuging the solution at 1,500 rpm.
PE-conjugated goat anti-human F(ab)₂; (Sigma; Cat. No. P8047)) was diluted in the FACS buffer at a volume ratio of 1:200, and then added to the cells at 100 μl/well. Cells were resuspended well and incubated at 4° C. for 30 minutes in a dark condition.
The cells incubated with the fixation buffer were repeatedly subjected to the washing procedure of resuspending the cells in a FACS buffer, centrifuging the solution at 1,500 rpm, and discarding the supernatant. The washed cells were resuspended in 200 μl of a FACS buffer, and the mean fluorescence intensities (MFIs) of the PE-labeled cells were monitored by a FACS LSR-Fortessa. All FACS analyses were conducted using the FlowJo software.

Binder | binding result [1] | EC50 (read off the curve) [2] [µg/mL] | EC50 (read off the curve) [1] [µg/mL]
B1 | binds | – | –
B2 | binds | – | –
B3 | – | ~0.6 | ~0.2
B4 | – | ~0.05 | –
B5 | – | – | ~0.3
B6 | – | ~0.08 | –
B7 | – | ~0.04 | –
B8 | – | ~0.4 | –
